Source: US7265263B1, “Potato transcription factors, methods of use thereof, and a method for enhancing tuber development” (Iowa State University Research Foundation, Inc., priority 2002, dated 2007)

Legend:
ga20ox1 promoter = test: Transcription assay, GUS reporter driven by ga20ox1 promoter in tobacco protoplasts; format: cell-based, potato
Excerpt: The cauliflower mosaic virus (CaMV) 35S promoter in pBI221 (Clontech, Palo Alto, Calif.) was replaced by an enhancer fragment (-832 to -50) of the 35S promoter plus 980 bp of the ga20ox1 promoter to generate the pGAOP::β-glucuronidase (GUS) reporter construct. With this construct, the reporter GUS transcription level is augmented but its transcription may still be affected by the ga20ox1 promoter. A CaMV 35S promoter-driven luciferase (LUC) construct 35S-LUC (obtained from Dr. Takahashi, Dept. of Biological Sciences, Graduate School of Science, Univ. of Tokyo, Japan) was used as an internal control. Effector constructs were also generated by using pBI221 vector as a backbone, with the GUS gene replaced by the full-length cDNAs of either StBEL-05 or POTH1, downstream of the CaMV 35S promoter. Truncated cDNAs that encode the N-terminal protein-binding domains of StBEL-05 or POTH1 were used to generate the dominant negative constructs, StBEL5ΔC295 and POTH1ΔC122, respectively. The reporter construct with the mutated promoter was generated by site-directed PCR mutagenesis with oligos 5′-CTATTTGACTTC*ACACGGTTATTT-3′ (SEQ ID NO:23) and 5′-AAATAACCGTGTG*AAGTCAAATAG-3′ (SEQ ID NO:24).
Fully expanded leaves from three- to four-week-old tobacco plants were excised and placed in K3 basal media (Kao et al., “Nutritional Requirements for Growth of Vicia hajastana Cells and Protoplasts at a Very Low Density in Liquid Media,” Planta 126:105-110 (1975), which is hereby incorporated by reference in its entirety) supplemented with 0.4 M sucrose, 0.25% (w-v) cellulases (Karlan Research Products, Santa Rosa, CA), and 0.05% (w-v) macerases (Calbiochem, La Jolla, Calif.) and incubated for overnight at 28° C. After incubation, the liberated protoplasts were filtered through sterile cheesecloth into a Babcock bottle, and centrifuged for 10 minutes at 1000 rpm. Protoplasts were collected from the bottleneck area and washed once in K3 media with 0.4 M sucrose and resuspended in K3 media containing 0.4 M glucose to a final concentration of 4×10^6 protoplasts per milliliter. […]
(§1) Luciferase assays were performed by injecting 100-μL luciferase substrate (Promega, Madison, Wis.) into 20 μL of extract and measuring the emitted photons for 15 seconds in a TD-20 luminometer (Turner Designs, Sunnyvale, Calif.). […] A fluorescence multiwell plate reader, Fluoroskan II (MTX labs, Vienna, Va.), was used to measure GUS activity at 365 nm (excitation) and 455 nm (emission). Each sample was measured three times for both LUC and GUS activity. Relative GUS-LUC activity was calculated by dividing the ratio of GUS activity to LUC activity from different effectors with the ratio from reporter plasmid alone. Relative activities calculated from three transfection replications were presented as a mean±SE.

CaMV 35S promoter = test: Transcription assay, GUS reporter driven by CaMV 35S promoter in tobacco protoplasts; format: cell-based, cauliflower mosaic virus
Protocol: FIGS. 24A-C show schematics of constructs (FIG. 24A) and the repression effect of StBEL-05 and POTH1 on the ga20ox1 promoter (FIG. 24B) and on the 35S CaMV promoter (FIG. 24C). The construct with the LUC gene under the control of the cauliflower mosaic virus (CaMV) 35S promoter was used as an internal control. Each transfection was performed three times. Relative GUS-LUC activity was calculated with reporter alone set as 100%. Data are means±SE.
For each transfection analysis, 700 μL of tobacco protoplasts (prepared as described above) were mixed with 30 μL 2 M KCl and plasmid DNA in an electroporation cuvette with 0.4-cm electrode gap. […]
as §1

POTH1 = test: Yeast two-hybrid interaction with POTH1; format: binding, Solanum tuberosum; settings: nutritional selection and lacZ activation, yeast AH109
Sequence of POTH1 (as listed by the source): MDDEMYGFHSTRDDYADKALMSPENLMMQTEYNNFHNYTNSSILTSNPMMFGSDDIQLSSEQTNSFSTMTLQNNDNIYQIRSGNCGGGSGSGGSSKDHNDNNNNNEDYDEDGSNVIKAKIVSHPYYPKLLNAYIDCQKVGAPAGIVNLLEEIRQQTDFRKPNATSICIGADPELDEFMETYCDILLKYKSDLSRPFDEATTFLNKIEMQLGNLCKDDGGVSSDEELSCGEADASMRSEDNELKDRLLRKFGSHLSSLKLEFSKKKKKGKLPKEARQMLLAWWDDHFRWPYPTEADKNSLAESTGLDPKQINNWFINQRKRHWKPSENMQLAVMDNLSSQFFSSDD
Excerpt: The Matchmaker two-hybrid system (Clontech, Calif.) was used for the yeast two-hybrid screen. Yeast transformation and plasmid rescue into DH5-α E. coli cells were according to the manufacturer's instructions. Full-length POTH1 was cloned into the pBridge (Clontech, Calif.) vector and used as bait to screen the potato (S. tuberosum ‘Desireé’) stolon cDNA library in pAD-GAL4-2.1 (Stratagene, Calif.). Positive interactions were confirmed by cotransforming yeast strain AH109 with each purified pAD plasmid and pBridge: POTH1 and plating on -leucine/-tryptophan (transformation control) and -leucine/-tryptophan/-histidine/-adenine (selection) nutrient medium. Induction of the AH109 reporter gene, lacZ, was measured with a yeast β-galactosidase assay kit (Pierce Chemicals). β-galactosidase activity (FIG. 9B) was determined from a known density of yeast cells and calculated as 1000×OD420/time of color reaction (minutes)×volume of yeast culture (ml)×OD600.
The StBEL-05 deletion constructs were amplified by PCR, then cloned into the vector, pGAD, in-frame with the GAL4 activation domain. POTH1 deletion constructs were amplified by PCR, and cloned into pBridge (Clontech) in-frame with the GAL4 binding domain. Sequencing of selected cDNAs and constructs was performed at the Iowa State University DNA Facility. For deletion analysis, modified constructs of POTH1 were cloned into the pBridge vector for fusion with the DNA-binding domain of GAL4 (FIG. 10A). For StBEL-05, constructs were cloned into the pGAD vector for fusion with the activating domain of GAL4 (FIG. 10B). Deletion constructs were made from both the amino and carboxy termini. These mutants were then tested for interaction in the yeast two-hybrid system by cotransforming into yeast strain AH109 with the corresponding full-length partner (StBEL-05 in pGAL4 or POTH1 in pBridge). All constructs were sequenced to verify that they were in-frame. Positive interactions were verified for lacZ induction by using a β-galactosidase assay (Pierce Chemical Company). For POTH1, seven deletion constructs were tested (FIG. 10A). For the BEL TFs, a fusion construct of StBEL-05 (653 aa of StBEL-05 sequence) and nine deletion constructs were tested (FIG. 10B).

B1: StBEL-05 protein from pGEM11Z (in vitro transcription/translation) (other)
chain: MYYQGTSDNTNIQADHQQRHNHGNSNNNNIQTLYLMNPNNYMQGYTTSDTQQQQQLLFLNSSPAASNALCHANIQHAPLQQQHFVGVPLPAVSLHDQINHHGLLQRMWNNQDQSQQVIVPSSTGVSATSCGGITTDLASQLAFQRPIPTPQHRQQQQQQGGLSLSLSPQLQQQISFNNNISSSSPRTNNVTIRGTLDGSSSNMVLGSKYLKAAQELLDEVVNIVGKSIKGDDQKKDNSMNKESMPLASDVNTNSSGGGESSSRQKNEVAVELTTAQRQELQMKKAKLLAMLEEVEQRYRQYHHQMQIIVLSFEQVAGIGSAKSYTQLALHAISKQFRCLKDAIAEQVKATSKSLGEEEGLGGKIEGSRLKFVDHHLRQQRALQQIGMMQPNAWRPQRGLPERAVSVLRAWLFEHFLHPYPKDSDKIMLAKQTGLTRSQVSNWFINARVRLWKPMVEEMYLEEVKNQEQNSTNTSGDNKNKETNISAPNEEKHPIITSSLLQDGITTTQAEISTSTISTSPTAGASLHHAHNFSFLGSFNMDNTTTTVDHIENNAKKQRNDMHKFSPSSILSSVDMEAKARESSNKGFTNPLMAAYAMGDFGRFDPHDQQMTANFHGNNGVSLTLGLPPSENLAMPVSQQNYLSNDLGSRSEMGSHYNRMGYENIDFQSGNKRFPTQLLPDFVTGNLGT
notes: 35S-methionine labelled prey; also called p11Z-5
relative GUS-LUC activity of the pGAOP::GUS reporter construct (ga20ox1 promoter; co-transfected effector, reporter alone = 100%): decreased by more than half
repression of promoter activity, reporter with point mutation in the binding site (ga20ox1 promoter; mutated ga20ox1 promoter): no detectable repression
effect on the activity of the CaMV 35S promoter (CaMV 35S promoter): Neither StBEL-05 nor POTH1 showed any effect
interaction with POTH1 (POTH1): showed selective interaction
